We go through 27 molecules from PMC10786891, “Massively parallel profiling of RNA-targeting CRISPR-Cas13d”.

B1: target 1 insU 3' of 15,insU 3' of 7 (mixed)
RNA 1: CACCCGUGCAAAAAUGCAGGGGUCUAAAACUGAGCGGAUAACCUCUCUAUGG
RNA 2: GGGAAUGGAUCCACAUCUACGAAUUCGUACCAUAGAGUAGGUUAUCUCGCUCACCGAGAUCGGAAGAGCACACGU
B2: target 1 C6G,A14G (mixed)
RNA 1: CACCCGUGCAAAAAUGCAGGGGUCUAAAACUGAGCGGAUAACCUCUCUAUGG
RNA 2: GGGAAUGGAUCCACAUCUACGAAUUCGUACCAUAGAGGGGUUAUCGGCUCACCGAGAUCGGAAGAGCACACGU
B3: target 1 insC 3' of 12,insG 3' of 1 (mixed)
RNA 1: CACCCGUGCAAAAAUGCAGGGGUCUAAAACUGAGCGGAUAACCUCUCUAUGG
RNA 2: GGGAAUGGAUCCACAUCUACGAAUUCGUACCAUAGAGAGGCUUAUCCGCUCAGCCGAGAUCGGAAGAGCACACGU
B4: target 1 C2G,U8G (mixed)
RNA 1: CACCCGUGCAAAAAUGCAGGGGUCUAAAACUGAGCGGAUAACCUCUCUAUGG
RNA 2: GGGAAUGGAUCCACAUCUACGAAUUCGUACCAUAGAGAGGUUAGCCGCUGACCGAGAUCGGAAGAGCACACGU
B5: target 1 insU 3' of 21,insA 3' of 10 (mixed)
RNA 1: CACCCGUGCAAAAAUGCAGGGGUCUAAAACUGAGCGGAUAACCUCUCUAUGG
RNA 2: GGGAAUGGAUCCACAUCUACGAAUUCGUACCUAUAGAGAGGUUAAUCCGCUCACCGAGAUCGGAAGAGCACACGU
B6: target 1 C6A,C21U (mixed)
RNA 1: CACCCGUGCAAAAAUGCAGGGGUCUAAAACUGAGCGGAUAACCUCUCUAUGG
RNA 2: GGGAAUGGAUCCACAUCUACGAAUUCGUACUAUAGAGAGGUUAUCAGCUCACCGAGAUCGGAAGAGCACACGU
B7: target 1 C6U,A16C (mixed)
RNA 1: CACCCGUGCAAAAAUGCAGGGGUCUAAAACUGAGCGGAUAACCUCUCUAUGG
RNA 2: GGGAAUGGAUCCACAUCUACGAAUUCGUACCAUAGCGAGGUUAUCUGCUCACCGAGAUCGGAAGAGCACACGU
B8: target 1 insC 3' of 18,insA 3' of 4 (mixed)
RNA 1: CACCCGUGCAAAAAUGCAGGGGUCUAAAACUGAGCGGAUAACCUCUCUAUGG
RNA 2: GGGAAUGGAUCCACAUCUACGAAUUCGUACCAUACGAGAGGUUAUCCGCAUCACCGAGAUCGGAAGAGCACACGU
B9: target 1 insC 3' of 12,insC 3' of 1 (mixed)
RNA 1: CACCCGUGCAAAAAUGCAGGGGUCUAAAACUGAGCGGAUAACCUCUCUAUGG
RNA 2: GGGAAUGGAUCCACAUCUACGAAUUCGUACCAUAGAGAGGCUUAUCCGCUCACCCGAGAUCGGAAGAGCACACGU
B10: target 1 C4A,G5U (mixed)
RNA 1: CACCCGUGCAAAAAUGCAGGGGUCUAAAACUGAGCGGAUAACCUCUCUAUGG
RNA 2: GGGAAUGGAUCCACAUCUACGAAUUCGUACCAUAGAGAGGUUAUCCUAUCACCGAGAUCGGAAGAGCACACGU
B11: target 1 del22 (mixed)
RNA 1: CACCCGUGCAAAAAUGCAGGGGUCUAAAACUGAGCGGAUAACCUCUCUAUGG
RNA 2: GGGAAUGGAUCCACAUCUACGAAUUCGUACAUAGAGAGGUUAUCCGCUCACCGAGAUCGGAAGAGCACACGU
B12: target 1 insC 3' of 9,insG 3' of 8 (mixed)
RNA 1: CACCCGUGCAAAAAUGCAGGGGUCUAAAACUGAGCGGAUAACCUCUCUAUGG
RNA 2: GGGAAUGGAUCCACAUCUACGAAUUCGUACCAUAGAGAGGUUACUGCCGCUCACCGAGAUCGGAAGAGCACACGU
B13: target 1 insG 3' of 16,insA 3' of 13 (mixed)
RNA 1: CACCCGUGCAAAAAUGCAGGGGUCUAAAACUGAGCGGAUAACCUCUCUAUGG
RNA 2: GGGAAUGGAUCCACAUCUACGAAUUCGUACCAUAGAGGAGAGUUAUCCGCUCACCGAGAUCGGAAGAGCACACGU
B14: target 1 insU 3' of 15,insC 3' of 9 (mixed)
RNA 1: CACCCGUGCAAAAAUGCAGGGGUCUAAAACUGAGCGGAUAACCUCUCUAUGG
RNA 2: GGGAAUGGAUCCACAUCUACGAAUUCGUACCAUAGAGUAGGUUACUCCGCUCACCGAGAUCGGAAGAGCACACGU
B15: target 1 U8C,G17U (mixed)
RNA 1: CACCCGUGCAAAAAUGCAGGGGUCUAAAACUGAGCGGAUAACCUCUCUAUGG
RNA 2: GGGAAUGGAUCCACAUCUACGAAUUCGUACCAUAUAGAGGUUACCCGCUCACCGAGAUCGGAAGAGCACACGU
B16: target 1 insA 3' of 12,insU 3' of 5 (mixed)
RNA 1: CACCCGUGCAAAAAUGCAGGGGUCUAAAACUGAGCGGAUAACCUCUCUAUGG
RNA 2: GGGAAUGGAUCCACAUCUACGAAUUCGUACCAUAGAGAGGAUUAUCCGUCUCACCGAGAUCGGAAGAGCACACGU
B17: target 1 C6G,U19A (mixed)
RNA 1: CACCCGUGCAAAAAUGCAGGGGUCUAAAACUGAGCGGAUAACCUCUCUAUGG
RNA 2: GGGAAUGGAUCCACAUCUACGAAUUCGUACCAAAGAGAGGUUAUCGGCUCACCGAGAUCGGAAGAGCACACGU
B18: target 1 insA 3' of 22,insC 3' of 16 (mixed)
RNA 1: CACCCGUGCAAAAAUGCAGGGGUCUAAAACUGAGCGGAUAACCUCUCUAUGG
RNA 2: GGGAAUGGAUCCACAUCUACGAAUUCGUACACAUAGACGAGGUUAUCCGCUCACCGAGAUCGGAAGAGCACACGU
B19: target 1 insA 3' of 12,insG 3' of 7 (mixed)
RNA 1: CACCCGUGCAAAAAUGCAGGGGUCUAAAACUGAGCGGAUAACCUCUCUAUGG
RNA 2: GGGAAUGGAUCCACAUCUACGAAUUCGUACCAUAGAGAGGAUUAUCGCGCUCACCGAGAUCGGAAGAGCACACGU
B20: target 1 insC 3' of 12,insA 3' of 2 (mixed)
RNA 1: CACCCGUGCAAAAAUGCAGGGGUCUAAAACUGAGCGGAUAACCUCUCUAUGG
RNA 2: GGGAAUGGAUCCACAUCUACGAAUUCGUACCAUAGAGAGGCUUAUCCGCUCAACCGAGAUCGGAAGAGCACACGU
B21: target 1 complement block 3-10 (mixed)
RNA 1: CACCCGUGCAAAAAUGCAGGGGUCUAAAACUGAGCGGAUAACCUCUCUAUGG
RNA 2: GGGAAUGGAUCCACAUCUACGAAUUCGUACCAUAGAGAGGUAUAGGCGACACCGAGAUCGGAAGAGCACACGU
B22: target 1 A9U,U10C (mixed)
RNA 1: CACCCGUGCAAAAAUGCAGGGGUCUAAAACUGAGCGGAUAACCUCUCUAUGG
RNA 2: GGGAAUGGAUCCACAUCUACGAAUUCGUACCAUAGAGAGGUCUUCCGCUCACCGAGAUCGGAAGAGCACACGU
B23: target 1 insA 3' of 22 (mixed)
RNA 1: CACCCGUGCAAAAAUGCAGGGGUCUAAAACUGAGCGGAUAACCUCUCUAUGG
RNA 2: GGGAAUGGAUCCACAUCUACGAAUUCGUACACAUAGAGAGGUUAUCCGCUCACCGAGAUCGGAAGAGCACACGU
B24: target 1 insC 3' of 22,insA 3' of 11 (mixed)
RNA 1: CACCCGUGCAAAAAUGCAGGGGUCUAAAACUGAGCGGAUAACCUCUCUAUGG
RNA 2: GGGAAUGGAUCCACAUCUACGAAUUCGUACCCAUAGAGAGGUAUAUCCGCUCACCGAGAUCGGAAGAGCACACGU
B25: target 1 insA 3' of 19,insU 3' of 7 (mixed)
RNA 1: CACCCGUGCAAAAAUGCAGGGGUCUAAAACUGAGCGGAUAACCUCUCUAUGG
RNA 2: GGGAAUGGAUCCACAUCUACGAAUUCGUACCAUAAGAGAGGUUAUCUCGCUCACCGAGAUCGGAAGAGCACACGU
B26: target 1 insA 3' of 13,insU 3' of 9 (mixed)
RNA 1: CACCCGUGCAAAAAUGCAGGGGUCUAAAACUGAGCGGAUAACCUCUCUAUGG
RNA 2: GGGAAUGGAUCCACAUCUACGAAUUCGUACCAUAGAGAGAGUUAUUCCGCUCACCGAGAUCGGAAGAGCACACGU
B27: target 1 C6U,C7A (mixed)
RNA 1: CACCCGUGCAAAAAUGCAGGGGUCUAAAACUGAGCGGAUAACCUCUCUAUGG
RNA 2: GGGAAUGGAUCCACAUCUACGAAUUCGUACCAUAGAGAGGUUAUAUGCUCACCGAGAUCGGAAGAGCACACGU

The target in the series is T1, EsCas13d, nuclease-dead (Eubacterium siraeum, UniProt B0MS50, R295A;H300A;R849A;H854A).
T1 sequence: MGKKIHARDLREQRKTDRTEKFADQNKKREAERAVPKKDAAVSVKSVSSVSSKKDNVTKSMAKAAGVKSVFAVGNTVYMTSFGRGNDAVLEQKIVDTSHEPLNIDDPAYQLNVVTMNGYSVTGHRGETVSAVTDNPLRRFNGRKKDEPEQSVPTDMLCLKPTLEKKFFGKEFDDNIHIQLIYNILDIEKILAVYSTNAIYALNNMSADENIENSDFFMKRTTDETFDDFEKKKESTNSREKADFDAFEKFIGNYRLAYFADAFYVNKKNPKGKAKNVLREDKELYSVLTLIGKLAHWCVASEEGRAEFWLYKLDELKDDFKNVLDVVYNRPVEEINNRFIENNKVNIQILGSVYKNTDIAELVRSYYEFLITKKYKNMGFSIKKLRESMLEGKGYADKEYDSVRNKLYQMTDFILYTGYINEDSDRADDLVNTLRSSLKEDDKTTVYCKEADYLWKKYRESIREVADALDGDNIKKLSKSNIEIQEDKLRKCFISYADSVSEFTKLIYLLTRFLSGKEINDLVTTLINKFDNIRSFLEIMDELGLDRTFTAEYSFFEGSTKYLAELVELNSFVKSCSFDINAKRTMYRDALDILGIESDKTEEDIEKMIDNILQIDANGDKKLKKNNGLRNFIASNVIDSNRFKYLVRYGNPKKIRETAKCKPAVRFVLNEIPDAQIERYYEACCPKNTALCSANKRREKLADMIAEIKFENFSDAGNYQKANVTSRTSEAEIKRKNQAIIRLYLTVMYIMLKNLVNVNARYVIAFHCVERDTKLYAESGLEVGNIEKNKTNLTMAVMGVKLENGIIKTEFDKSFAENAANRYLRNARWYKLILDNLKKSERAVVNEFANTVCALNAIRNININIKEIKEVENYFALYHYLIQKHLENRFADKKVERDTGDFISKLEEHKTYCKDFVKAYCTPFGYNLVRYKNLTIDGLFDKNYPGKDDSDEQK
The series can be described thus: crRNA (strand 1, pre-loaded); Mg2+; 40 mM Tris-HCl pH 7.5, 150 mM NaCl, 6 mM MgCl2, 1 mM DTT, 0.1% Tween-20, 0.2 mg/ml BSA; 25 C; 10 min per concentration, then washed. Conditions: tags: His6-TwinStrep-SUMO cleaved; N-terminal SNAP kept (SNAP-Surface 488); label: 3' end held by stalled T7 RNA polymerase.
Regarding B1, the affinity, expressed as Kd, was 8.47 ± 0.27 nM.

Molecule B2 showed a Kd of 13.5 ± 1.3 nM.

Consider B3, for which the Kd came out at 8.5 ± 1.2 nM.

Regarding B4, the Kd amounted to 17.4 ± 0.8 nM.

In the case of B5, the Kd was determined as 39.2 ± 2.4 nM. Compared with the last molecule, the Kd is about 2.3-fold higher.

In turn, B6 showed a dissociation constant (Kd) of 6.48 ± 0.21 nM.

As for B7, the Kd was found to be 40 ± 5 nM.

B8 displayed a dissociation constant (Kd) of 38 ± 9 nM.

B9 registered a dissociation constant Kd of 7.7 ± 0.5 nM.

The molecule B10 yielded a Kd of 30.6 ± 2.4 nM.

Take B11: the Kd is 26.6 ± 1.7 nM.

B12 returned a Kd of 11.1 ± 0.4 nM. This Kd is about 2.4-fold lower than that of the molecule before.

B13 registered a Kd of 16.1 ± 1.5 nM.

For B14, the Kd is 67 ± 7 nM.

The molecule B15 gave a Kd of 41 ± 4 nM.

For B16, the Kd stood at 35.4 ± 2.8 nM.

Turning to B17, binding was characterised by a dissociation constant (Kd) of 35 ± 5 nM.

The molecule B18 gave a Kd of around 60 nM.

B19: the Kd came out at 27.7 ± 2 nM.

The molecule B20 gave a Kd of 9.9 ± 1.1 nM.

B21: binding was put at a Kd of 12.2 ± 0.34 nM.

On to B22, for which the affinity, expressed as Kd, was 8.6 ± 0.9 nM.

Regarding B23, the Kd worked out at 14.8 ± 1.1 nM.

On to B24, for which the Kd came out at 33 ± 5 nM.

B25 had a Kd of 41.8 ± 2.3 nM.

In turn, B26 gave a dissociation constant Kd of 4.6 ± 0.5 nM. Compared with the last molecule, the Kd is about 9.1-fold lower.

In the case of B27, the Kd stood at 8.6 ± 0.6 nM. Against the preceding molecule, the Kd is about 1.9-fold higher.

As a reminder, the Kd is the equilibrium constant for the complex coming apart. A lower Kd goes with tighter binding.
